According to PMC4966879:
Like-named read-outs stand apart in the source and are kept apart here.

What was measured:
Test in all cases: SAXS
HUαβ [1] = target: T1, HUαβ (Escherichia coli, UniProt P0ACF0;P0ACF4 1-90;1-90)
HUαα [2] = target: T2, HUαα (Escherichia coli, UniProt P0ACF0 1-90)
HUαα [3] = target: T2, HUαα; remark: listed apart in the source
HUαα V45E = HUαα V45E (Escherichia coli, UniProt P0ACF0 1-90, V45E)
HUαα P63E = HUαα P63E (Escherichia coli, UniProt P0ACF0 1-90, P63E)
HUαβ [4] = target: T1, HUαβ; remark: listed apart in the source
HUα38α38 = HUα38α38 (Escherichia coli, UniProt P0ACF0 1-90, E38K;V42L)
HUαα G82E = HUαα G82E (Escherichia coli, UniProt P0ACF0 1-90, G82E)

Measured: binding result

B1: 20-bp DNA (dsDNA)
DNA 1: GTTCAATTGTTGTTAACTTG
DNA 2: CAAGTTAACAACAATTGAAC
binds: HUαβ [1] | HUαα [2]

B2: 80-bp DNA (dsDNA)
DNA 1: AATGAGGTAACAACGAAAGCAGATGATAGCTGCTTATCAATTTGTTGCAAACAAGTAGCCGCGCCCAATGAGGTAACAAT
DNA 2: ATTGTTACCTCATTGGGCGCGGCTACTTGTTTGCAACAAATTGATAAGCAGCTATCATCTGCTTTCGTTGTTACCTCATT
not listed: HUαβ [1] | HUαα [2]
binds: all other assays above
